From patent US20120201809A1 (COVX TECHNOLOGIES IRELAND, published 2012)
Where two headings read alike, the source gives them in different places.

How the values were obtained:
[1] = target: T1, human IGF1R on cells (mouse 3T3 cells engineered to express human IGF1R); human colon adenocarcinoma Colo205 … (human, UniProt P08069 31-1367); test: cell-based or functional assay
[2] = target: T1, human IGF1R on cells (mouse 3T3 cells …); test: cell-based or functional assay; remark: listed apart in the source

B1: 2.12.1.fx antibody (anti-IGF1R antibody) (antibody, human IgG2, kappa, V domains shown)
VH: QVQLVESGGGLVKPGGSLRLSCAASGFTFSDYYMSWIRQAPGKGLEWVSYISSSGSTRDYADSVKGRFTISRDNAKNSLYLQMNSLRAEDTAVYYCVRDGVETTFYYYYYGMDVWGQGTTVTVSS
VL: DIQMTQSPSSLSASVGDRVTITCRASQDIRRDLGWYQQKPGKAPKRLIYAASRLQSGVPSRFSGSGSGTEFTLTISSLQPEDFATYYCLQHNNYPRTFGQGTKLVIKR
- % IGF1R downregulated [1]: 48%
- % IGF1R downregulated [2]: 36%
